Measurements from patent US20240100176A1 (Eli Lilly, published 2024).

Tests used:
[1] = biological target: T1, hexahistidine tagged human IL-4Rα ECD D143R (human, UniProt P24394 26-232); test: capture ELISA: Ab1 on anti-human IgG Fc, His-tagged receptor at 0.04 µg/mL, anti-His HRP
T1 construct: not shown: hexahistidine tag
From the text: (§1) Example 2d. […] Briefly, thirty surface amino acid residue substitutions were introduced individually into hexahistidine tagged human IL-4Rα extra cellular domain (ECD) as follows: K2D, E6R, K22D, P26R, T31R, F41A, L42G, L43G, E45R, E52R, G56R, D66R, A71R, Q82G, K87D, E94R, H107A, D108R, P124R, D125R, D143R, R148D, L155R, R160D, S164R, S168R, Q181R, P192R, K195D, or H197G. Each mutant protein having a single amino acid residue substitution as described above was transiently expressed in CHO cells and purified using standard immobilized metal affinity chromatography techniques. […] The plates were then washed 3 times with PBST and the exemplified human IL-4Rα antibody was added to the wells at a final concentration of 1 μg/mL in PBS-casein and incubated for 1 hour at room temperature. The plates were washed 3 times with PBST, the IL-4Rα mutant proteins were serially diluted 5-fold from 1 μg/mL for 3 points. in PBS-casein and added to the plate at 50 μL/well and incubated for 1 hour at room temperature. The plates were washed 3 times with PBST and a 1000-fold dilution of anti-histidine tag antibody HRP conjugate (R&D Systems, Cat. #MAB050H) in PBS-casein was added and incubated for 45 minutes at room temperature. The plates were washed 3 times, TMB substrate (Pierce, Cat. #34028) was added per manufacturer instructions, the reaction was quenched with H₂SO₄, and absorbance was read at 450 nm on an ELISA plate reader.

[2] = biological target: T2, hexahistidine tagged human IL-4Rα ECD Q181R (human, UniProt P24394 26-232); test: as above
T2 construct: not shown: hexahistidine tag
T2 sequence (P24394 26-232 Q206R): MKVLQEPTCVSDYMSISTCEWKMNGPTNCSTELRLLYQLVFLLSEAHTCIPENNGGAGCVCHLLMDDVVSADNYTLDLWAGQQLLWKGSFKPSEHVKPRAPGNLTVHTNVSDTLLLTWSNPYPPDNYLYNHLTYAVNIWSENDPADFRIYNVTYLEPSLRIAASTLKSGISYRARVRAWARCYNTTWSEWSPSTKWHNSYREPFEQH
From the text: as §1

[3] = biological target: T3, hexahistidine tagged human IL-4Rα ECD R160D (human, UniProt P24394 26-232); test: as above
T3 construct: not shown: hexahistidine tag
T3 sequence (P24394 26-232 R185D): as the sequence (P24394 26-232 Q206R) above, with R160D, R181Q counted along it
From the text: as §1

[4] = biological target: T4, hexahistidine tagged human IL-4Rα ECD A71R (human, UniProt P24394 26-232); test: as above
T4 construct: not shown: hexahistidine tag
T4 sequence (P24394 26-232 A96R): as the sequence (P24394 26-232 Q206R) above, with A71R, R181Q counted along it
From the text: as §1

[5] = biological target: T5, hexahistidine tagged human IL-4Rα ECD H107A (human, UniProt P24394 26-232); test: as above
T5 construct: not shown: hexahistidine tag
T5 sequence (P24394 26-232 H132A): as the sequence (P24394 26-232 Q206R) above, with H107A, R181Q counted along it
From the text: as §1

[6] = biological target: T6, hexahistidine tagged human IL-4Rα ECD K195D (human, UniProt P24394 26-232); test: as above
T6 construct: not shown: hexahistidine tag
T6 sequence (P24394 26-232 K220D): as the sequence (P24394 26-232 Q206R) above, with R181Q, K195D counted along it
From the text: as §1

[7] = biological target: T7, hexahistidine tagged human IL-4Rα ECD E45R (human, UniProt P24394 26-232); test: as above
T7 construct: not shown: hexahistidine tag
T7 sequence (P24394 26-232 E70R): as the sequence (P24394 26-232 Q206R) above, with E45R, R181Q counted along it
From the text: as §1

[8] = biological target: T8, hexahistidine tagged human IL-4Rα ECD D125R (human, UniProt P24394 26-232); test: as above
T8 construct: not shown: hexahistidine tag
T8 sequence (P24394 26-232 D150R): as the sequence (P24394 26-232 Q206R) above, with D125R, R181Q counted along it
From the text: as §1

[9] = biological target: T9, hexahistidine tagged human IL-4Rα ECD F41A (human, UniProt P24394 26-232); test: as above
T9 construct: not shown: hexahistidine tag
T9 sequence (P24394 26-232 F66A): as the sequence (P24394 26-232 Q206R) above, with F41A, R181Q counted along it
From the text: as §1

[10] = biological target: T10, hexahistidine tagged human IL-4Rα ECD P192R (human, UniProt P24394 26-232); test: as above
T10 construct: not shown: hexahistidine tag
T10 sequence (P24394 26-232 P217R): as the sequence (P24394 26-232 Q206R) above, with R181Q, P192R counted along it
From the text: as §1

[11] = biological target: T11, hexahistidine tagged human IL-4Rα ECD H197G (human, UniProt P24394 26-232); test: as above
T11 construct: not shown: hexahistidine tag
T11 sequence (P24394 26-232 H222G): as the sequence (P24394 26-232 Q206R) above, with R181Q, H197G counted along it
From the text: as §1

[12] = biological target: T12, hexahistidine tagged human IL-4Rα ECD T31R (human, UniProt P24394 26-232); test: as above
T12 construct: not shown: hexahistidine tag
T12 sequence (P24394 26-232 T56R): as the sequence (P24394 26-232 Q206R) above, with T31R, R181Q counted along it
From the text: as §1

[13] = biological target: T13, hexahistidine tagged human IL-4Rα ECD L155R (human, UniProt P24394 26-232); test: as above
T13 construct: not shown: hexahistidine tag
T13 sequence (P24394 26-232 L180R): as the sequence (P24394 26-232 Q206R) above, with L155R, R181Q counted along it
From the text: as §1

[14] = biological target: T14, hexahistidine tagged human IL-4Rα ECD K87D (human, UniProt P24394 26-232); test: as above
T14 construct: not shown: hexahistidine tag
T14 sequence (P24394 26-232 K112D): as the sequence (P24394 26-232 Q206R) above, with K87D, R181Q counted along it
From the text: as §1

[15] = biological target: T15, hexahistidine tagged human IL-4Rα ECD K22D (human, UniProt P24394 26-232); test: as above
T15 construct: not shown: hexahistidine tag
T15 sequence (P24394 26-232 K47D): as the sequence (P24394 26-232 Q206R) above, with K22D, R181Q counted along it
From the text: as §1

[16] = biological target: T16, hexahistidine tagged human IL-4Rα ECD T108R (human, UniProt P24394 26-232); test: capture ELISA: Ab1 on anti-human IgG Fc, His-tagged receptor at 0.2 µg/mL, anti-His HRP
T16 construct: also called D108R; not shown: hexahistidine tag
T16 sequence (P24394 26-232 T133R): as the sequence (P24394 26-232 Q206R) above, with T108R, R181Q counted along it

T1 sequence (P24394 26-232 D168R): as the sequence (P24394 26-232 Q206R) above, with D143R, R181Q counted along it

B1: anti-human IL-4Rα antibody Ab1 (antibody, human IgG4 S228P, kappa)
heavy: QVQLVESGGGLVQPGGSLRLSCVASGFTFSHSSMNWVRQAPGKGLEWVSYISRATGAVYYADSVKGRFTISRDNAKNSLYLQMNSLRDEDTAVYYCAREPVFDYWGQGTLVTVSSASTKGPCVFPLAPCSRSTSESTAALGCLVKDYFPEPVTVSWNSGALTSGVHTFPAVLQSSGLYSLSSVVTVPSSSLGTKTYTCNVDHKPSNTKVDKRVESKYGPPCPPCPAPEFLGGPSVFLFPPKPKDTLMISRTPEVTCVVVDVSQEDPEVKFNWYVDGVEVHNAKTKPREEQFNSTYRVVSVLTVLHQDWLNGKEYKCKVSNKGLPSSIEKTISKAKGQPREPQVYTLPPSREEMTKNQVSLTCLVKGFYPSDICVEWESNGQPENNYKTTPPVLDSDGSFFLYSRLTVDKSRWQQGNVFSCSVMHEALHNHYTQKSLSLSLG
light: DIQMTQSPSAMSASVGDRVTITCRASQDISNYLAWFQQKPGKVPTRLIYAASSLQSGVPSRFSGSGSGTEFTLTISSLQPEDFATYYCLQWSSYPRTFGQGTKVEIKRTVAAPSVFIFPPSDEQLKSGTASVVCLLNNFYPREAKVQWKVDNALQSGNSQESVTEQDSKDSTYSLSSTLTLSKADYEKHKVYACEVTHQGLSSPVTKSFNRGEC
notes: human kappa light chain; also called anti-human IL-4Rα Ab1; unconjugated Ab1
B1 was tested, and the “ELISA (OD450)” value [1] was 1.27 OD450, the “ELISA (OD450)” value [2] was 1.17 OD450 and the “ELISA (OD450)” value [3] was 1.2 OD450. For the same binder, the “ELISA (OD450)” value [4] was 0.907 OD450, the “ELISA (OD450)” value [5] was 1.42 OD450 and the “ELISA (OD450)” value [6] was 0.992 OD450. For the same binder, the “ELISA (OD450)” value [7] was 1.58 OD450, the “ELISA (OD450)” value [8] was 1.01 OD450 and the “ELISA (OD450)” value [9] was 1.15 OD450. For the same binder, the “ELISA (OD450)” value [10] was 1.22 OD450, the “ELISA (OD450)” value [11] was 0.967 OD450 and the “ELISA (OD450)” value [12] was 0.994 OD450. For the same binder, the “ELISA (OD450)” value [13] was 1.14 OD450, the “ELISA (OD450)” value [14] was 0.911 OD450 and the “ELISA (OD450)” value [15] was 0.593 OD450. The “ELISA (OD450)” value [16] was 1.82 OD450.
